Assay [1] concerns the target HLA-A*11:01. Nature of the assay: IEDB peptide-MHC binding, purified MHC/competitive/fluorescence; ≥ and ≤ were set here for values at or beyond the usual limits of such assays.
The target of another assay is HLA-A*68:02. Nature of the assay: IEDB peptide-MHC binding, purified MHC/competitive/radioactivity; filed as Kd, often an IC50 or EC50 that approximates it; ≥ and ≤ were set here for values at or beyond the usual limits of such assays.
A further assay deals with HLA-A*02:06. Described as above.
Assay [2] has as its target HLA-A*02:01. The assay is described as above.
Another assay has as its target HLA-A*02:03. Described as above.
The target in a further assay is HLA-A*02:02. Described as above.
The next assay concerns the target HLA-B*15:03. The assay is described as above. The note with it: source organism: Vaccinia virus WR.
In the next assay the target is HLA-B*57:01. Nature of the assay: IEDB peptide-MHC binding, purified MHC/direct/fluorescence; filed as Kd, often an IC50 or EC50 that approximates it; ≥ and ≤ were set here for values at or beyond the usual limits of such assays.
A further assay has as its target HLA-B*58:01. The description is as above.
For another assay, the target named is HLA-B*15:17. The description is as above.
The next assay deals with HLA-B*46:01. Nature of the assay: IEDB peptide-MHC binding, purified MHC/competitive/fluorescence; filed as Kd, often an IC50 or EC50 that approximates it; ≥ and ≤ were set here for values at or beyond the usual limits of such assays.
Assay [3] addresses HLA-B*44:02. As to the kind of experiment: IEDB peptide-MHC binding, purified MHC/direct/fluorescence; filed as Kd, often an IC50 or EC50 that approximates it; ≥ and ≤ were set here for values at or beyond the usual limits of such assays. The note with it: source organism: Giardia lamblia ATCC 50803.
Assay [4] deals with HLA-B*40:01. The assay is described as above. The note with it: source organism: Giardia lamblia ATCC 50803.
The next assay deals with HLA-B*07:02. Described as above. The following applies: source organism: Giardia lamblia ATCC 50803.
Assay [5] concerns the target HLA-A*11:01. The assay is described as above. The note with it: source organism: Giardia lamblia ATCC 50803.
The target of the next assay is HLA-B*08:01. The description is as above. The note with it: source organism: Giardia lamblia ATCC 50803.
Another assay addresses HLA-B*15:01. Described as above. The note with it: source organism: Giardia lamblia ATCC 50803.
The target in the next assay is HLA-A*31:01. Described as above. The following applies: source organism: Giardia lamblia ATCC 50803.
The target of another assay is HLA-A*03:01. The assay is described as above. The following applies: source organism: Giardia lamblia ATCC 50803.
The target in another assay is HLA-A*26:01. The description is as above. The note with it: source organism: Giardia lamblia ATCC 50803.
For a further assay, the target named is HLA-A*69:01. Described as above. The following applies: source organism: Giardia lamblia ATCC 50803.
Assay [6] has as its target HLA-A*02:01. The description is as above. The following applies: source organism: Giardia lamblia ATCC 50803.
For the next assay, the target named is HLA-B*27:05. The assay is described as above. The following applies: source organism: Giardia lamblia ATCC 50803.
Another assay deals with HLA-A*01:01. The description is as above. The following applies: source organism: Giardia lamblia ATCC 50803.
The next assay addresses HLA-B*40:02. Nature of the assay: IEDB peptide-MHC binding, purified MHC/competitive/radioactivity; filed as Kd, often an IC50 or EC50 that approximates it; ≥ and ≤ were set here for values at or beyond the usual limits of such assays.
Assay [7] addresses HLA-B*44:02. The assay is described as above.
Assay [8] deals with HLA-B*40:01. The assay is described as above.
Another assay has as its target HLA-B*45:01. The assay is described as above.
The target of another assay is HLA-B*44:03. Described as above.
The target of a further assay is HLA-B*18:01. Described as above.
Setting [9] is: source organism: Trypanosoma cruzi.
Where [10] appears, read: source organism: Brucella melitensis.
Setting [11] is: source organism: Giardia lamblia ATCC 50803.
[12] abbreviates: source organism: Mammarenavirus guanaritoense.
Where [13] appears, read: source organism: Mammarenavirus juninense.
[14] abbreviates: source organism: SARS coronavirus Tor2.
[15] abbreviates: source organism: Mammarenavirus lassaense.

Results on 30 sequences are retold here after the Immune Epitope Database (IEDB).

The sequence EIFSAWISH showed a half-maximal inhibitory concentration (IC50) with HLA-A*11:01 [1] (source organism: Variola virus) of 22600 nM.
As to ELEQTYHAKL, the dissociation constant Kd was 9730 nM with HLA-A*68:02 (source organism: Homo sapiens); no less than 71200 nM in the assay with HLA-A*02:06 (source organism: Homo sapiens); no less than 40200 nM in the assay with HLA-A*02:01 [2] (source organism: Homo sapiens); no less than 94300 nM in the assay with HLA-A*02:03 (source organism: Homo sapiens); 2840 nM with HLA-A*02:02 (source organism: Homo sapiens).
FKAKWLTPF: in the assay with HLA-B*15:03, the dissociation constant (Kd) came out at 0.0731 nM.
Take FLTYLDVSV: the dissociation constant Kd with HLA-A*02:01 [2] (source organism: Homo sapiens) is no more than 1 nM.
Turning to FSALPTNEF, the Kd with HLA-B*15:03 is 0.13 nM.
For GLLPLLLLLG, the Kd worked out at 7010 nM with HLA-A*68:02 (setting [9]); 15.3 nM with HLA-A*02:06 (setting [9]); 2.69 nM with HLA-A*02:01 [2] (setting [9]); 109 nM in the assay with HLA-A*02:03 (setting [9]); 79.2 nM with HLA-A*02:02 (setting [9]).
For the sequence IAASNLEQF, the dissociation constant Kd with HLA-B*57:01 (setting [10]) turned out to be 202 nM; in the assay with HLA-B*58:01 (setting [10]) it was 50 nM; with HLA-B*15:17 (setting [10]), 22.6 nM; with HLA-B*46:01 (source organism: Brucella melitensis bv. 1 str. 16M), 47.9 nM.
ISAFPKNDF: the Kd with HLA-B*15:03 was determined as 663 nM.
As for ISYTYNDNW, the Kd with HLA-B*44:02 [3], with HLA-B*40:01 [4], with HLA-B*07:02, in the assay with HLA-A*11:01 [5], in the assay with HLA-B*08:01 and with HLA-B*15:01 was no less than 20000 nM throughout. Moreover, the Kd with HLA-A*31:01 was no less than 20000 nM; with HLA-B*57:01 (setting [11]) it was 64.1 nM; in the assay with HLA-A*03:01 it was no less than 20000 nM; with HLA-B*58:01 (setting [11]), 11.8 nM; with HLA-B*15:17 (setting [11]) it was 1.4 nM; with HLA-A*26:01 it was no less than 20000 nM. Moreover, the Kd with HLA-A*69:01, in the assay with HLA-A*02:01 [6] and in the assay with HLA-B*27:05 was no less than 20000 nM each time.
On to ITFHNQRDF, for which the Kd is no less than 20000 nM in the assay with HLA-B*44:02 [3]; no less than 20000 nM with HLA-B*40:01 [4]; no less than 20000 nM with HLA-B*07:02; no less than 20000 nM with HLA-A*11:01 [5]; no less than 20000 nM in the assay with HLA-B*08:01; 146 nM with HLA-B*15:01. Moreover, the equilibrium dissociation constant (Kd) with HLA-A*31:01 was no less than 20000 nM; with HLA-A*01:01 it was no less than 20000 nM; with HLA-B*57:01 (setting [11]), 125 nM; with HLA-A*03:01, no less than 20000 nM; in the assay with HLA-B*58:01 (setting [11]) it was 165 nM; in the assay with HLA-B*15:17 (setting [11]), 5.2 nM. Further, the equilibrium dissociation constant (Kd) with HLA-A*26:01, with HLA-A*69:01, with HLA-A*02:01 [6], in the assay with HLA-B*27:05 and with HLA-B*46:01 (setting [11]) was no less than 20000 nM each time.
Turning to KLTKDFSAL, the dissociation constant (Kd) with HLA-A*02:01 [2] (source organism: Homo sapiens) came out at 550 nM; with HLA-A*02:03 (source organism: Homo sapiens) it was 34.2 nM; with HLA-A*02:02 (source organism: Homo sapiens), 20.5 nM.
On to LENAQPGLL, for which the Kd was 182 nM with HLA-B*40:02 (setting [12]); 6080 nM with HLA-B*44:02 [7] (setting [12]); 1030 nM in the assay with HLA-B*40:01 [8] (setting [12]); no less than 48000 nM with HLA-B*45:01 (setting [12]); 13800 nM with HLA-B*44:03 (setting [12]); 10700 nM in the assay with HLA-B*18:01 (setting [12]).
Regarding LGGILPWTK, the IC50 in the assay with HLA-A*11:01 [1] (source organism: Vaccinia virus WR) amounted to 536 nM.
Turning to LLHQSSDKFV, the Kd in the assay with HLA-A*68:02 (source organism: Homo sapiens) came out at 2970 nM; in the assay with HLA-A*02:06 (source organism: Homo sapiens), 13500 nM; with HLA-A*02:01 [2] (source organism: Homo sapiens), 808 nM; in the assay with HLA-A*02:03 (source organism: Homo sapiens), 78.3 nM; in the assay with HLA-A*02:02 (source organism: Homo sapiens) it was 14.4 nM.
With MDYLILKNL, the dissociation constant Kd with HLA-B*40:02 (setting [13]) is 18.5 nM; with HLA-B*44:02 [7] (setting [13]) it was 11000 nM; in the assay with HLA-B*40:01 [8] (setting [13]), no less than 33900 nM; with HLA-B*45:01 (setting [13]) it was no less than 33200 nM; in the assay with HLA-B*44:03 (setting [13]), 2740 nM; in the assay with HLA-B*18:01 (setting [13]) it was no less than 53700 nM.
In the case of PEYFNSVCRL, the equilibrium dissociation constant (Kd) in the assay with HLA-B*40:02 (setting [14]) is 1250 nM; with HLA-B*44:02 [7] (setting [14]) it was no less than 32400 nM; with HLA-B*40:01 [8] (setting [14]), 2830 nM; with HLA-B*45:01 (setting [14]) it was no less than 33300 nM; with HLA-B*44:03 (setting [14]), 9390 nM; with HLA-B*18:01 (setting [14]), no less than 70500 nM.
As to QKFPYEGGK, in the assay with HLA-A*11:01 [1] (source organism: Vaccinia virus), the IC50 is no less than 140000 nM.
In the case of RLVRPFLVV, the Kd with HLA-B*15:03 stood at 15.9 nM.
For SEGNATPGGY, the Kd in the assay with HLA-B*40:02 (setting [15]) is no less than 70800 nM; in the assay with HLA-B*44:02 [7] (setting [15]) it was 19500 nM; with HLA-B*40:01 [8] (setting [15]) it was no less than 64200 nM; with HLA-B*45:01 (setting [15]) it was no less than 70000 nM; in the assay with HLA-B*44:03 (setting [15]) it was 7250 nM; with HLA-B*18:01 (setting [15]) it was 18700 nM.
Regarding SIPNFNQYEA, the Kd in the assay with HLA-A*02:01 [2] (source organism: Lassa virus Josiah) is no less than 25000 nM.
SLADEAEVHL: the Kd with HLA-A*02:01 [2] (source organism: Homo sapiens) stood at 29 nM.
For the sequence SLFEGIDFYT, the Kd with HLA-A*02:01 [2] (source organism: Homo sapiens) stood at 1.1 nM.
Turning to TEFACVVAEA, the Kd in the assay with HLA-B*40:02 (setting [14]) is 14.6 nM; with HLA-B*44:02 [7] (setting [14]) it was 1440 nM; with HLA-B*40:01 [8] (setting [14]) it was 1510 nM; with HLA-B*45:01 (setting [14]), 8.98 nM; with HLA-B*44:03 (setting [14]), 393 nM; in the assay with HLA-B*18:01 (setting [14]) it was 60.8 nM.
With TMVNSLTYF, the Kd with HLA-B*15:03 is 0.126 nM.
In the assay with HLA-A*11:01 [1] (source organism: Sudan ebolavirus), TQALQLFLR gave an IC50 of 2530 nM. This counts as single-digit micromolar.
Consider VEFHLDGEVL, for which the Kd with HLA-B*40:02 (setting [14]) was 140 nM; in the assay with HLA-B*44:02 [7] (setting [14]), 3760 nM; with HLA-B*40:01 [8] (setting [14]) it was 0.877 nM; in the assay with HLA-B*45:01 (setting [14]), 6950 nM; with HLA-B*44:03 (setting [14]) it was 935 nM; with HLA-B*18:01 (setting [14]), 3230 nM.
As to VENPDILRV, the Kd in the assay with HLA-B*40:02 (setting [14]) was 1270 nM; with HLA-B*44:02 [7] (setting [14]) it was 5140 nM; in the assay with HLA-B*40:01 [8] (setting [14]), no less than 21800 nM; with HLA-B*45:01 (setting [14]) it was 474 nM; in the assay with HLA-B*44:03 (setting [14]) it was 250 nM; with HLA-B*18:01 (setting [14]), 9070 nM.
In the case of WEILKFLIT, the dissociation constant (Kd) with HLA-B*40:02 (setting [14]) is 2.09 nM; with HLA-B*44:02 [7] (setting [14]), 9580 nM; in the assay with HLA-B*40:01 [8] (setting [14]) it was 4360 nM; with HLA-B*45:01 (setting [14]), 4990 nM; in the assay with HLA-B*44:03 (setting [14]), 1450 nM; with HLA-B*18:01 (setting [14]), 2900 nM.
In the case of WITQCFLPV, the Kd with HLA-A*02:01 [2] (source organism: Homo sapiens) is 173 nM.
YVLPRRGPRL: the Kd with HLA-A*02:01 [2] (source organism: Hepatitis C virus subtype 3a) was found to be 3570 nM.
